Data on 1 substance can be found in PMC6404601.

“And” between values parts separate entries of the source, which are not always exact repeats. Equal values may be shown once.

For this test, the target named is YFP^C-Rho5 or YFP^C-Rho5^G12V. Description: split reporter (BiFC, NanoBiT); BiFC of candidate VN fusions with YFP^C fusions of WT or mutant Rho5 (G12V, K16N) in living yeast cells; z-stack fluorescence microscopy at 22-25°; for Atg21-VN signals quantified above a threshold set from a strain with untagged Rho5.

For the substance “Atg21-VN (Atg21 tagged with VN, the N-terminal fragment of Venus) (from UniProt Q02887 1-496) (natural protein)”, the percent of cells with YFP signal above threshold is 40 % of cells and 62 % of cells.
